Source: the supplement of paper PMC9112550, “Optimization of the antimicrobial peptide Bac7 by deep mutational scanning” (BMC Biology, 2022)
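Also: peptides expressed intracellularly from a pBAD plasmid library in pooled LB shake-flask culture, induced with 0.3% L-arabinose, DNA abundance read by NGS, three biological replicates, DESeq2 with apeglm shrinkage.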

The sequences below were run on Escherichia coli TOP10 (assay: shrunken log2 fold change of peptide-encoding DNA abundance (4.5 h post-induction vs induction); higher = less antimicrobial activity (less host growth inhibition)). Conditions: time post-induction: 4.5 h; library: site-saturation at positions 5, 18, 19, 20.
RRIRMRPPRLPRPRPRPFETPRP was tested, and the “shrunken log2 fold change” value was -0.00884. RRIRMRPPRLPRPRPRPFFEPRP was tested, and the “shrunken log2 fold change” value was 0.597. RRIRMRPPRLPRPRPRPFFIPRP was tested, and the “shrunken log2 fold change” value was -0.247. In the case of RRIRMRPPRLPRPRPRPFGCPRP, the “shrunken log2 fold change” value was 0.254. For RRIRMRPPRLPRPRPRPFHAPRP, the “shrunken log2 fold change” value was 0.199. With RRIRMRPPRLPRPRPRPFHIPRP the “shrunken log2 fold change” value was -0.269. RRIRMRPPRLPRPRPRPFKHPRP was tested, and the “shrunken log2 fold change” value was -0.306. In the case of RRIRMRPPRLPRPRPRPFKYPRP, the “shrunken log2 fold change” value was -0.164. With RRIRMRPPRLPRPRPRPFMHPRP the “shrunken log2 fold change” value was -0.647. With RRIRMRPPRLPRPRPRPFMLPRP the “shrunken log2 fold change” value was -0.213. With RRIRMRPPRLPRPRPRPFMPPRP the “shrunken log2 fold change” value was -0.127. RRIRMRPPRLPRPRPRPFPTPRP was tested, and the “shrunken log2 fold change” value was 0.153. RRIRMRPPRLPRPRPRPFPVPRP was tested, and the “shrunken log2 fold change” value was -0.175. For RRIRMRPPRLPRPRPRPFQCPRP, the “shrunken log2 fold change” value was -0.153. For RRIRMRPPRLPRPRPRPFQMPRP, the “shrunken log2 fold change” value was -0.323. With RRIRMRPPRLPRPRPRPFSGPRP the “shrunken log2 fold change” value was -0.0134. In the case of RRIRMRPPRLPRPRPRPFSKPRP, the “shrunken log2 fold change” value was -0.284. RRIRMRPPRLPRPRPRPFSLPRP was tested, and the “shrunken log2 fold change” value was -0.282. For RRIRMRPPRLPRPRPRPFSNPRP, the “shrunken log2 fold change” value was -0.175. RRIRMRPPRLPRPRPRPFTKPRP was tested, and the “shrunken log2 fold change” value was -0.319. In the case of RRIRMRPPRLPRPRPRPFTPPRP, the “shrunken log2 fold change” value was -0.397. For RRIRMRPPRLPRPRPRPFWDPRP, the “shrunken log2 fold change” value was 0.359. With RRIRMRPPRLPRPRPRPFYRPRP the “shrunken log2 fold change” value was -0.0105. In the case of RRIRMRPPRLPRPRPRPFYWPRP, the “shrunken log2 fold change” value was 0.086. In the case of RRIRMRPPRLPRPRPRPGAHPRP, the “shrunken log2 fold change” value was 0.473. With RRIRMRPPRLPRPRPRPGCMPRP the “shrunken log2 fold change” value was 0.968. For RRIRMRPPRLPRPRPRPGCWPRP, the “shrunken log2 fold change” value was 0.984. For RRIRMRPPRLPRPRPRPGDHPRP, the “shrunken log2 fold change” value was 0.147. For RRIRMRPPRLPRPRPRPGETPRP, the “shrunken log2 fold change” value was 0.0143. In the case of RRIRMRPPRLPRPRPRPGFAPRP, the “shrunken log2 fold change” value was 1.35. RRIRMRPPRLPRPRPRPGFTPRP was tested, and the “shrunken log2 fold change” value was 0.00309. In the case of RRIRMRPPRLPRPRPRPGHDPRP, the “shrunken log2 fold change” value was 0.0618. With RRIRMRPPRLPRPRPRPGHLPRP the “shrunken log2 fold change” value was 0.0373. With RRIRMRPPRLPRPRPRPGHSPRP the “shrunken log2 fold change” value was 0.182. In the case of RRIRMRPPRLPRPRPRPGINPRP, the “shrunken log2 fold change” value was -0.319. With RRIRMRPPRLPRPRPRPGIPPRP the “shrunken log2 fold change” value was 0.726. RRIRMRPPRLPRPRPRPGIWPRP was tested, and the “shrunken log2 fold change” value was 0.379. With RRIRMRPPRLPRPRPRPGKAPRP the “shrunken log2 fold change” value was 0.153. For RRIRMRPPRLPRPRPRPGLFPRP, the “shrunken log2 fold change” value was 0.236. With RRIRMRPPRLPRPRPRPGLMPRP the “shrunken log2 fold change” value was 0.518. With RRIRMRPPRLPRPRPRPGMNPRP the “shrunken log2 fold change” value was -0.00589. With RRIRMRPPRLPRPRPRPGPQPRP the “shrunken log2 fold change” value was 1.21. In the case of RRIRMRPPRLPRPRPRPGQVPRP, the “shrunken log2 fold change” value was 0.418. For RRIRMRPPRLPRPRPRPGREPRP, the “shrunken log2 fold change” value was 1.02. With RRIRMRPPRLPRPRPRPGRPPRP the “shrunken log2 fold change” value was 0.383. With RRIRMRPPRLPRPRPRPGSCPRP the “shrunken log2 fold change” value was 0.29. With RRIRMRPPRLPRPRPRPGSSPRP the “shrunken log2 fold change” value was 0.198. In the case of RRIRMRPPRLPRPRPRPGTTPRP, the “shrunken log2 fold change” value was 1.24. For RRIRMRPPRLPRPRPRPHAFPRP, the “shrunken log2 fold change” value was 0.179. In the case of RRIRMRPPRLPRPRPRPHAIPRP, the “shrunken log2 fold change” value was 0.224. With RRIRMRPPRLPRPRPRPHCCPRP the “shrunken log2 fold change” value was -0.0266. RRIRMRPPRLPRPRPRPHDRPRP was tested, and the “shrunken log2 fold change” value was 0.0623. RRIRMRPPRLPRPRPRPHDSPRP was tested, and the “shrunken log2 fold change” value was -0.0393. In the case of RRIRMRPPRLPRPRPRPHECPRP, the “shrunken log2 fold change” value was 0.0178. For RRIRMRPPRLPRPRPRPHEHPRP, the “shrunken log2 fold change” value was 0.301. In the case of RRIRMRPPRLPRPRPRPHFAPRP, the “shrunken log2 fold change” value was 0.194. RRIRMRPPRLPRPRPRPHFSPRP was tested, and the “shrunken log2 fold change” value was -0.194. In the case of RRIRMRPPRLPRPRPRPHHVPRP, the “shrunken log2 fold change” value was -0.143. RRIRMRPPRLPRPRPRPHIGPRP was tested, and the “shrunken log2 fold change” value was -0.00118. With RRIRMRPPRLPRPRPRPHKLPRP the “shrunken log2 fold change” value was -0.0702. For RRIRMRPPRLPRPRPRPHKQPRP, the “shrunken log2 fold change” value was 0.0796. With RRIRMRPPRLPRPRPRPHLGPRP the “shrunken log2 fold change” value was 0.086. With RRIRMRPPRLPRPRPRPHMKPRP the “shrunken log2 fold change” value was -0.158. For RRIRMRPPRLPRPRPRPHNGPRP, the “shrunken log2 fold change” value was -0.337. For RRIRMRPPRLPRPRPRPHPEPRP, the “shrunken log2 fold change” value was 0.414. In the case of RRIRMRPPRLPRPRPRPHSAPRP, the “shrunken log2 fold change” value was 0.283. For RRIRMRPPRLPRPRPRPHSIPRP, the “shrunken log2 fold change” value was 0.0955. RRIRMRPPRLPRPRPRPHSLPRP was tested, and the “shrunken log2 fold change” value was -0.0589. RRIRMRPPRLPRPRPRPHVCPRP was tested, and the “shrunken log2 fold change” value was -0.107. For RRIRMRPPRLPRPRPRPHVNPRP, the “shrunken log2 fold change” value was -0.132. With RRIRMRPPRLPRPRPRPHVWPRP the “shrunken log2 fold change” value was 0.281. With RRIRMRPPRLPRPRPRPHWAPRP the “shrunken log2 fold change” value was 0.00824. For RRIRMRPPRLPRPRPRPHWWPRP, the “shrunken log2 fold change” value was 0.325. RRIRMRPPRLPRPRPRPHYEPRP was tested, and the “shrunken log2 fold change” value was -0.0284. For RRIRMRPPRLPRPRPRPICNPRP, the “shrunken log2 fold change” value was -0.0126.
